{
  "source": "patent US20020127657A1",
  "target": "GST-fusion of the truncated CD2 tail (CD2221-282) (human) (UniProt P06729)",
  "sequence (P06729 245-306)": "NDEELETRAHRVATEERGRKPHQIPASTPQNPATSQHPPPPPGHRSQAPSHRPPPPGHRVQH",
  "assay": "NMR titration, estimate from line broadening in fast exchange",
  "data": [
    {"substance": "purified binding domain of CD2BP2 comprising amino acids 256-341 (His-tagged, NMR sample)", "values": [
      {"measurement": "koff", "value": "> 1000", "unit": "s⁻¹"}
    ]}
  ]
}
